According to patent publication US20140093496A1 (Chugai, published 2014):
Where a chain is given by its changes, count along the chain named. Names and notes keep the numbering of the source. One block for each binder: values may come before it.

Legend:
[1] = target: T1, FcγRIIIa type V extracellular domain, C-terminal His tag (human, UniProt P08637 17-208); test: SPR (Biacore), antibody captured on chip, FcγR extracellular domain as analyte; 1:1 kinetic fit or Equation 2 for weak binding
T1 construct: extracellular domain; also called FcgRIIIaV; FcγRIIIaV; not shown: His tag at the C terminus
Text: (§1) IL6R-L was utilized as the common antibody L chain for all of the antibodies, the antibodies were expressed and purified according to the method of Reference Example 1, and binding to each of the FcγRs (FcγRIa, FcγRIIa H type, FcγRIIa R type, FcγRIIb, and FcγRIIIa V type) was comprehensively evaluated by the method of Reference Example 2.
(§2) Furthermore, KD(IIaR)/KD(IIb) and KD(IIaH)/KD(IIb) in the table respectively represent the value obtained by dividing the KD value of each variant for FcγRIIaR by the KD value of each variant for FcγRIIb, and the value obtained by dividing the KD value of each variant for FcγRIIaH by the KD value of each variant for FcγRIIb. KD(IIb) of the parent polypeptide/KD(IIb) of the altered polypeptide refers to the value obtained by dividing the KD value of the parent polypeptide for FcγRIIb by the KD value of each variant for FcγRIIb.

[2] = target: T2, FcγRIIa type R extracellular domain, C-terminal His tag (human, UniProt P12318 34-217); test: SPR (Biacore), antibody captured, FcγR as analyte
T2 construct: extracellular domain; also called FcgRIIaR; FcγRIIaR; not shown: His tag at the C terminus
T2 sequence (looked up): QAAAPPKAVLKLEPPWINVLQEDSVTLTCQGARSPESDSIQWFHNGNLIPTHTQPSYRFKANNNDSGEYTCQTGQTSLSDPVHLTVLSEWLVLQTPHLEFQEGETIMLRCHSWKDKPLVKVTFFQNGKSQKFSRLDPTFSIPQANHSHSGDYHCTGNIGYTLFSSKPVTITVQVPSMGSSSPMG
Text: as §2
Kinetic analyses for calculating the KD values of each altered antibody for FcγR were performed according to the following method. First, antibodies of interest were captured onto the above-mentioned sensor chips, and an Fcγ receptor diluted with the running buffer was allowed to interact. The Biacore Evaluation Software was used to globally fit the measured results to the obtained sensorgram using the 1:1 Langmuir binding model, and the association rate constant ka (L/mol/s) and the dissociation rate constant kd (1/s) were calculated; and from those values the dissociation constants KD (mol/L) were calculated.

[3] = target: T3, FcγRIIb extracellular domain with C-terminal His tag (human, UniProt P31994 43-217); test: SPR (Biacore)
T3 construct: extracellular domain; also called FcgRIIb
T3 sequence (looked up): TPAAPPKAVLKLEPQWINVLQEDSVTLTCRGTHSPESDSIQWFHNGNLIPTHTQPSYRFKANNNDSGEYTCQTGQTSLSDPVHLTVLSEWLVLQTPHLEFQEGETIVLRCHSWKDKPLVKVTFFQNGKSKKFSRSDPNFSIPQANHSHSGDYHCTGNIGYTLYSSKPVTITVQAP
Text: as §1, §2

[4] = target: T4, FcγRIIa type R extracellular domain with C-terminal His tag (human, UniProt P12318 34-217); test: SPR (Biacore)
T4 construct: extracellular domain; also called FcgRIIaR; FcγRIIaR
T4 sequence (looked up): T2 sequence (looked up)
Text: as §1, §2

[5] = target: T5, FcγRIa extracellular domain with C-terminal His tag (human, UniProt P12314 16-292); test: SPR (Biacore)
T5 construct: also called FcgRIa
Text: as §1, §2

T1 sequence (P08637 17-208 F176V): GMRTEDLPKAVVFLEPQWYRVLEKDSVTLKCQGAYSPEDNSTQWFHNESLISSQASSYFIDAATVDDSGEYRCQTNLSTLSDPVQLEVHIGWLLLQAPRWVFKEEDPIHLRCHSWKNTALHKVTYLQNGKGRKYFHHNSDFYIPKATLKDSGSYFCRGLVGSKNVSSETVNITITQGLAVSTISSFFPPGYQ
T5 sequence (P12314 16-292): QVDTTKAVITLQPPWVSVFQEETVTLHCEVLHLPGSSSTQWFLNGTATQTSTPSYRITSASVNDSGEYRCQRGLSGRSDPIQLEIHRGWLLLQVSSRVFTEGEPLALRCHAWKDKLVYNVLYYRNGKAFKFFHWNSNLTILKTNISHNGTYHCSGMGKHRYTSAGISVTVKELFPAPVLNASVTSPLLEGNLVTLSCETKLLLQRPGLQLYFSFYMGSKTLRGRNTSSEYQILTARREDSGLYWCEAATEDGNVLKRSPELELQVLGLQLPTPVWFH

Kd [1]: 73 µM
B1: IL6R-BP211/IL6R-L (antibody, human IgG1, kappa)
heavy: QVQLQESGPGLVKPSETLSLTCAVSGHSISHDHAWSWVRQPPGEGLEWIGFISYSGITNYNPSLQGRVTISRDNSKNTLYLQMNSLRAEDTAVYYCARSLARTTAMDYWGEGTLVTVSSASTKGPSVFPLAPSSKSTSGGTAALGCLVKDYFPEPVTVSWNSGALTSGVHTFPAVLQSSGLYSLSSVVTVPSSSLGTQTYICNVNHKPSNTKVDKKVEPKSCDKTHTCPPCPAPDLLGGDSVFLFPPKPKDTLMISRTPEVTCVVVDVSDEDGEVKFNWYVDGVEVHNAKTKPREEQYNSTYRVVSVLTVLHQDWLNGKEYKCKVSNAALPRPIEKTISKAKGQPREPQVYTLPPSRDELTKNQVSLTCLVKGFYPSDIAVEWESNGQPENNYKTTPPVLDSDGSFFLYSKLTVDKSRWQQGNVFSCSVMHEALHNHYTQESLSLSP
light: not shown
notes: Anti-human IL-6 receptor IgG1

Kd [1]: 33 µM
B2: IL6R-BP197/IL6R-L (antibody, human IgG1, kappa)
heavy: B1 heavy with L236Y, G239D, Y298D, A328D, R332K
light: not shown
notes: Anti-human IL-6 receptor IgG1

Kd [2]: 15 µM
B3: IL6R-BP118/IL6R-L (antibody, human IgG1, kappa)
heavy: B1 heavy with D235E, D270H, G273P, A328S, R332A
light: not shown
notes: IgG1; P238D/K326S (EU numbering) introduced into IL6R-B3

Kd [3]: 0.3 µM
B4: IL6R-BP130/IL6R-L (antibody, human IgG1, kappa)
heavy: B1 heavy with D270H, G273P, V325M, A328K, R332K
light: not shown
notes: E233D/P238D/V323M/A330K (EU) in IL6R-B3; copies: 2 + 2

Kd [1]: 41 µM
B5: IL6R-BP209/IL6R-L (antibody, human IgG1, kappa)
heavy: B1 heavy with D235E, G239D
light: not shown
notes: Anti-human IL-6 receptor IgG1

Kd [2]: 16 µM
B6: IL6R-BP911/IL6R-L (antibody, human IgG1, kappa)
heavy: B1 heavy with D235E, D270H, G273P, A328K, R332K
light: not shown
notes: IgG1; P238D/A330K (EU numbering) introduced into IL6R-B3

Kd [3]: 0.04 µM
B7: IL6R-BP151/IL6R-L (antibody, human IgG1, kappa)
heavy: B1 heavy with L236Y, G239D, D270H, G273P
light: not shown
notes: E233D/L234Y/G237D/P238D/K326A/A330R (EU) in IL6R-B3; copies: 2 + 2

Kd [4]: 1 µM
B8: IL6R-BP188/IL6R-L (antibody, human IgG1, kappa)
heavy: B1 heavy with G239D, A328K, R332K
light: not shown
notes: E233D/G237D/P238D/H268D/P271G/A330K (EU) in IL6R-B3; copies: 2 + 2

Kd [1]: 51 µM
B9: IL6R-BP196/IL6R-L (antibody, human IgG1, kappa)
heavy: B1 heavy with D235E, L236Y, R332K
light: not shown
notes: Anti-human IL-6 receptor IgG1

Kd [2]: 7.8 µM
B10: IL6R-BP100/IL6R-L (antibody, human IgG1, kappa)
heavy: B1 heavy with D235E, S269A, D270H, G273P, A328K, R332A
light: not shown
notes: IgG1; P238D/S267A (EU numbering) introduced into IL6R-B3

Kd [2]: 11 µM
B11: IL6R-BP103/IL6R-L (antibody, human IgG1, kappa)
heavy: B1 heavy with D235E, S269V, D270H, G273P, A328K, R332A
light: not shown
notes: IgG1; P238D/S267V (EU numbering) introduced into IL6R-B3

Kd [4]: 2.6 µM
Kd [5]: 0.0066 µM
B12: IL6R-BP192/IL6R-L (antibody, human IgG1, kappa)
heavy: B1 heavy with Y298D, A328K, R332K
light: not shown
notes: E233D/P238D/H268D/P271G/Y296D/A330K (EU) in IL6R-B3; copies: 2 + 2

Kd [4]: 1 µM
B13: IL6R-BP210/IL6R-L (antibody, human IgG1, kappa)
heavy: B1 heavy with D235E, G239D, A328K
light: not shown
notes: G237D/P238D/H268D/P271G/A330R (EU) in IL6R-B3; copies: 2 + 2

Kd [4]: 0.99 µM
Kd [5]: 0.18 µM
B14: IL6R-BP203/IL6R-L (antibody, human IgG1, kappa)
heavy: B1 heavy with D235E, G239D, D270H, A328K
light: not shown
notes: G237D/P238D/P271G/A330R (EU) in IL6R-B3; copies: 2 + 2

Kd [3]: 0.5 µM
Kd [5]: 0.007 µM
B15: IL6R-BP084/IL6R-L (antibody, human IgG1, kappa)
heavy: B1 heavy with D235E, D270H, G273P, V325M, A328K, R332K
light: not shown
notes: P238D/V323M/A330K (EU) in IL6R-B3; copies: 2 + 2

Kd [1]: 53 µM
B16: IL6R-BP208/IL6R-L (antibody, human IgG1, kappa)
heavy: B1 heavy with G239D, A328K
light: not shown
notes: Anti-human IL-6 receptor IgG1

Kd [4]: 4.5 µM
B17: IL6R-BP204/IL6R-L (antibody, human IgG1, kappa)
heavy: B1 heavy with D270H
light: not shown
notes: E233D/P238D/P271G/K326A/A330R (EU) in IL6R-B3; copies: 2 + 2

Kd [4]: 0.98 µM
B18: IL6R-BP197/IL6R-L (antibody, human IgG1, kappa)
heavy: B1 heavy with L236Y, G239D, Y298D, A328D, R332K
light: not shown
notes: E233D/L234Y/G237D/P238D/H268D/P271G/Y296D/K326D/A330K (EU) in IL6R-B3; copies: 2 + 2

Kd [1]: 61 µM
B19: IL6R-BP199/IL6R-L (antibody, human IgG1, kappa)
heavy: B1 heavy with D270H, G273P, A328D
light: not shown
notes: Anti-human IL-6 receptor IgG1

Kd [4]: 3 µM
B20: IL6R-BP196/IL6R-L (antibody, human IgG1, kappa)
heavy: B1 heavy with D235E, L236Y, R332K
light: not shown
notes: L234Y/P238D/H268D/P271G/K326A/A330K (EU) in IL6R-B3; copies: 2 + 2

Kd [2]: 15 µM
B21: IL6R-BP116/IL6R-L (antibody, human IgG1, kappa)
heavy: B1 heavy with D235E, D270H, G273P, A328T, R332A
light: not shown
notes: IgG1; P238D/K326T (EU numbering) introduced into IL6R-B3
